Data from the supplement of paper PMC9112550, “Optimization of the antimicrobial peptide Bac7 by deep mutational scanning” (BMC Biology, 2022).

Tested on: Escherichia coli TOP10
Test: shrunken log2 fold change of peptide-encoding DNA abundance (4.5 h post-induction vs induction); higher = less antimicrobial activity (less host growth inhibition)
Details: time post-induction: 4.5 h; library: site-saturation at positions 5, 18, 19, 20
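Also: peptides expressed intracellularly from a pBAD plasmid library in pooled LB shake-flask culture, induced with 0.3% L-arabinose, DNA abundance read by NGS, three biological replicates, DESeq2 with apeglm shrinkage.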

Row | Sequence | shrunken log2 fold change
1 | RRIRNRPPRLPRPRPRPNHRPRP | -0.216
2 | RRIRRRPPRLPRPRPRPYHDPRP | -0.266
3 | RRIRSRPPRLPRPRPRPSCLPRP | -0.585
4 | RRIRKRPPRLPRPRPRPDSWPRP | 0.0425
5 | RRIRARPPRLPRPRPRPFGYPRP | 0.167
6 | RRIRKRPPRLPRPRPRPPDMPRP | 0.469
7 | RRIRHRPPRLPRPRPRPNPFPRP | -0.67
8 | RRIRDRPPRLPRPRPRPYLKPRP | -0.443
9 | RRIRTRPPRLPRPRPRPTLMPRP | -0.142
10 | RRIRNRPPRLPRPRPRPIEKPRP | -0.0498
11 | RRIRKRPPRLPRPRPRPTNRPRP | -0.0262
12 | RRIRTRPPRLPRPRPRPVTSPRP | -0.0276
13 | RRIRVRPPRLPRPRPRPCIVPRP | -0.0169
14 | RRIRERPPRLPRPRPRPYHEPRP | -3.17
15 | RRIRNRPPRLPRPRPRPMTKPRP | 0.116
16 | RRIRIRPPRLPRPRPRPFNTPRP | -0.191
17 | RRIRVRPPRLPRPRPRPCAPPRP | -0.22
18 | RRIRRRPPRLPRPRPRPVKYPRP | -0.167
19 | RRIRIRPPRLPRPRPRPEMWPRP | 0.0226
20 | RRIRYRPPRLPRPRPRPGQWPRP | 0.136
21 | RRIRIRPPRLPRPRPRPWETPRP | -0.0306
22 | RRIRARPPRLPRPRPRPDEEPRP | 0.901
23 | RRIRYRPPRLPRPRPRPGRVPRP | -0.106
24 | RRIRLRPPRLPRPRPRPRSDPRP | 0.126
25 | RRIRQRPPRLPRPRPRPNFTPRP | -0.186

Row | Sequence | shrunken log2 fold change
26 | RRIRWRPPRLPRPRPRPEEMPRP | 0.013
27 | RRIRERPPRLPRPRPRPHPSPRP | -0.222
28 | RRIRKRPPRLPRPRPRPGGNPRP | 0.049
29 | RRIRWRPPRLPRPRPRPFCHPRP | -0.0562
30 | RRIRHRPPRLPRPRPRPMKLPRP | -0.254
31 | RRIRTRPPRLPRPRPRPKCCPRP | -0.133
32 | RRIRERPPRLPRPRPRPSCPPRP | -0.361
33 | RRIRMRPPRLPRPRPRPWPDPRP | 0.592
34 | RRIRIRPPRLPRPRPRPYYMPRP | -0.983
35 | RRIRKRPPRLPRPRPRPIGMPRP | 0.213
36 | RRIRCRPPRLPRPRPRPPMEPRP | 0.245
37 | RRIRMRPPRLPRPRPRPWLRPRP | 0.0433
38 | RRIRVRPPRLPRPRPRPKSWPRP | 0.224
39 | RRIRARPPRLPRPRPRPLKQPRP | 0.469
40 | RRIRLRPPRLPRPRPRPQQNPRP | -0.241
41 | RRIRFRPPRLPRPRPRPCDIPRP | -0.0737
42 | RRIRHRPPRLPRPRPRPFHGPRP | -0.121
43 | RRIRGRPPRLPRPRPRPHTTPRP | 0.333
44 | RRIRVRPPRLPRPRPRPCRVPRP | 0.00617
45 | RRIRNRPPRLPRPRPRPDFQPRP | -0.156
46 | RRIRQRPPRLPRPRPRPDGCPRP | -0.103
47 | RRIRMRPPRLPRPRPRPKEGPRP | -0.01
48 | RRIRERPPRLPRPRPRPVDQPRP | 0.0107
49 | RRIRCRPPRLPRPRPRPPSTPRP | -0.0239
50 | RRIRKRPPRLPRPRPRPPSGPRP | 1.1
